# Results published in paper PMC2929593.
# B1: EntH (Escherichia coli K-12) (protein)
# chain: MIWKRHLTLDELNATSDNTMVAHLGIVYTRLGDDVLEAEMPVDTRTHQPFGLLHGGASAALAETLGSMAGFMMTRDGQCVVGTELNATHHRPVSEGKVRGVCQPLHLGRQNQSWEIVVFDEQGRRCCTCRLGTAVLG
# Key:
# Test in all cases: DTNB continuous spectrophotometric thioesterase assay
# Assay type in all cases: biochemical, Escherichia coli
# Details in all cases: pH 7.5, 25 °C
# [1] = substrate: CCCCCC(=O)SCCNC(=O)CCNC(=O)[C@H](O)C(C)(C)COP(=O)(O)OP(=O)(O)OC[C@H]1O[C@@H](n2cnc3c(N)ncnc32)[C@H](O)[C@@H]1OP(=O)(O)O
# [2] = substrate: CC(C)(COP(=O)(O)OP(=O)(O)OC[C@H]1O[C@@H](n2cnc3c(N)ncnc32)[C@H](O)[C@@H]1OP(=O)(O)O)[C@@H](O)C(=O)NCCC(=O)NCCSC(=O)c1ccc(O)cc1
# [3] = substrate: CC(C)(COP(=O)(O)OP(=O)(O)OC[C@H]1O[C@@H](n2cnc3c(N)ncnc32)[C@H](O)[C@@H]1OP(=O)(O)O)[C@@H](O)C(=O)NCCC(=O)NCCSC(=O)c1cccc(O)c1
# [4] = substrate: CCC(=O)SCCNC(=O)CCNC(=O)[C@H](O)C(C)(C)COP(=O)(O)OP(=O)(O)OC[C@H]1O[C@@H](n2cnc3c(N)ncnc32)[C@H](O)[C@@H]1OP(=O)(O)O
# [5] = substrate: CCCCCCCCCCCCCCCC(=O)SCCNC(=O)CCNC(=O)[C@H](O)C(C)(C)COP(=O)(O)OP(=O)(O)OC[C@H]1O[C@@H](n2cnc3c(N)ncnc32)[C@H](O)[C@@H]1OP(=O)(O)O
# [6] = substrate: CCCCCCCCCCCC(=O)SCCNC(=O)CCNC(=O)[C@H](O)C(C)(C)COP(=O)(O)OP(=O)(O)OC[C@H]1O[C@@H](n2cnc3c(N)ncnc32)[C@H](O)[C@@H]1OP(=O)(O)O
# [7] = substrate: CC(C)(COP(=O)(O)OP(=O)(O)OC[C@H]1O[C@@H](n2cnc3c(N)ncnc32)[C@H](O)[C@@H]1OP(=O)(O)O)[C@@H](O)C(=O)NCCC(=O)NCCSC(=O)Cc1cccc(O)c1
# [8] = substrate: CC(=O)SCCNC(=O)CCNC(=O)[C@H](O)C(C)(C)COP(=O)(O)OP(=O)(O)OC[C@H]1O[C@@H](n2cnc3c(N)ncnc32)[C@H](O)[C@@H]1OP(=O)(O)O
# [9] = substrate: CCCCCCCCCC(=O)SCCNC(=O)CCNC(=O)[C@H](O)C(C)(C)COP(=O)(O)OP(=O)(O)OC[C@H]1O[C@@H](n2cnc3c(N)ncnc32)[C@H](O)[C@@H]1OP(=O)(O)O
protein,measurement,setting,value
B1,Km,[1],350 ± 90 µM
same,kcat,[1],0.058 ± 0.001 s⁻¹
same,Km,[2],21 ± 2 µM
same,kcat,[2],1.55 ± 0.05 s⁻¹
same,Km,[3],35 ± 1 µM
same,kcat,[3],1.21 ± 0.01 s⁻¹
same,Km,[4],400 ± 40 µM
same,kcat,[4],0.0125 ± 0.0006 s⁻¹
same,Km,[5],55 ± 9 µM
same,kcat,[5],0.085 ± 0.004 s⁻¹
same,Km,[6],45 ± 2 µM
same,kcat,[6],0.0281 ± 0.0003 s⁻¹
same,Km,[7],37 ± 1 µM
same,kcat,[7],2.1 ± 0.5 s⁻¹
same,Km,[8],800 ± 90 µM
same,kcat,[8],0.0044 ± 0.0002 s⁻¹
same,Km,[9],49 ± 3 µM
same,kcat,[9],0.0267 ± 0.0004 s⁻¹
